The binders below were run against huAXL-ECD displayed on yeast (human) (UniProt P30530) (assay: yeast surface display ELISA, non-denatured yeast, goat anti-human F(ab')2-HRP).
Sequence of huAXL-ECD displayed on yeast (human) (P30530 26-449, form in doubt): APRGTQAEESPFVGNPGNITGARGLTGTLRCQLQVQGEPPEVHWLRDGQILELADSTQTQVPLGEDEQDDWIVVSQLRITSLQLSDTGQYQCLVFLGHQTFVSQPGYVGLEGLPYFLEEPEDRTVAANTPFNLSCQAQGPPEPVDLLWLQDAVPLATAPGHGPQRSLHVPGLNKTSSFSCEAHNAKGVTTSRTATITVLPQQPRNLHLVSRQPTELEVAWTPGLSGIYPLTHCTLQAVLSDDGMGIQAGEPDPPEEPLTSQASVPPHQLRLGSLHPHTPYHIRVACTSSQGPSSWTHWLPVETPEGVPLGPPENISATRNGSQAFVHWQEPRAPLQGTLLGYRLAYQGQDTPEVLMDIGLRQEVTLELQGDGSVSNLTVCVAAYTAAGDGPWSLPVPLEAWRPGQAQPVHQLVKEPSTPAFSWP

yeast ELISA signal normalized to myc expression level | Binder
1.39 | hFC-F107-10G1 (antibody, human IgG1, kappa, V domains shown) VH: EVNLVESGGGVVKPGASLKLSCEASGFTFSNYGMSWVRQTSDKRLEWVASISGGGGRTYYLDNVKGRFIISRENAKNTLYLQMSSLKSEDTALFYCARGARASYFAMDYWGQGSSVTVSS VL: VIVMTQSHKFMSTSVGDRVSITCKASQDVTTAVAWYQQKPGQSPKLLIYWASTRHTGVPDRFTGSGSGTDYSLTISNVQTEDLAFYYCQQHFTTPLTFGAGTKLELKR
1.03 | NRC-sdAb001-Fc (VHH-human IgG1 Fc fusion) (Fc fusion, not shown: a dimerising Fc or GST) QVKLEESGGGLVQAGGSLRLSCTASASISSFDIMGWYRQAPGKQRELVAAITTLDIANYRDSVKGRFTISRDNAKNTVYLQMDSLKPEDTARYHCAAFQSDQNYWGQGTQVTVSS
0.882 | NRC-sdAb002-Fc (VHH-human IgG1 Fc fusion) (Fc fusion, not shown: a dimerising Fc or GST) QVQLVDSGGGLVQAGGSLRLSCATSTRTVSSAVMAWFRQAPEKVRDFVGFITNSGNILYDDSVKGRFTISRDNAQNTVYLQMNSLKPEDTAVYYCAAKWSFSSGYGDLRRAAMYDYWGQGTQVTVSS
0.659 | NRC-sdAb003-Fc (VHH-human IgG1 Fc fusion) (Fc fusion, not shown: a dimerising Fc or GST) QVQLVESGGGLVQAGGSLRLSCAASGVTLDYTAIGWFRQAPGKERELVAAITSGGNTDYAESAKGRFRISRDNSKNTIYLQMNSLKPEDTGVYYCAARRGGARGEYDYWDQGTQVTVSS

These binders were tested against human AXL expressed on the cell surface of tumor cell lines (human) (UniProt P30530) (assay: cell-based or functional assay).
Sequence of human AXL expressed on the cell surface of tumor cell lines (human) (P30530 26-894): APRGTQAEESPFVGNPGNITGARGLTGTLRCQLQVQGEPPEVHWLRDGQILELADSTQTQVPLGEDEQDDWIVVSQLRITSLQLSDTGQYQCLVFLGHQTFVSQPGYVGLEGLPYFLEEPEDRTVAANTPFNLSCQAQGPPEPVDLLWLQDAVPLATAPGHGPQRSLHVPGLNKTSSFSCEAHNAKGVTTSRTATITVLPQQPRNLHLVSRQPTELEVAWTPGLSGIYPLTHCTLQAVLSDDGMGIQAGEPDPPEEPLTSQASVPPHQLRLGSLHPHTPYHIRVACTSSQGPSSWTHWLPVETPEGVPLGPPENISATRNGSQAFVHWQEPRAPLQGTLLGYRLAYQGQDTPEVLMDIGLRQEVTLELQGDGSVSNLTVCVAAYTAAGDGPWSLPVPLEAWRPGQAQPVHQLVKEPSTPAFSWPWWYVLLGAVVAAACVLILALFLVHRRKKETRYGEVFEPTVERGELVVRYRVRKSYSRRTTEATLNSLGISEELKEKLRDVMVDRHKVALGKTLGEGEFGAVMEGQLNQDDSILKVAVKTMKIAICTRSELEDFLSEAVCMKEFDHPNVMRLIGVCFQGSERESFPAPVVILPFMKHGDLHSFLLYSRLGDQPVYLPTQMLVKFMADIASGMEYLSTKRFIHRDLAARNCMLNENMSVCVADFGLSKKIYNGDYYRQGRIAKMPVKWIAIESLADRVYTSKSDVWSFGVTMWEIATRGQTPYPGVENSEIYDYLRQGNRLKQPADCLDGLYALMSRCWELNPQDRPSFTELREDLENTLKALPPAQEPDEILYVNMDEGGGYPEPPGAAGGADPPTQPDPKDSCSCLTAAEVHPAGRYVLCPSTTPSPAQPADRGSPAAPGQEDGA

IC50 of growth inhibition (CellTiterGlo, 5 days) of NCI-H292 cells, -Gas6 | IC50 of growth inhibition of NCI-H292 cells, +Gas6 (2 µg/mL) | Binder
2.71 nM |  | hFc-sdAb006-DM1 (Fc fusion, not shown: a dimerising Fc or GST, DM1 conjugate (SMCC linker); sites not given) QVKLEESGGGLVQAGASLRLSCVASESIFGFNTMGWYRQAPGNERELVASISNSKRTMYADSVKGRFTISRDNAKNTVNLQMNNLKPEDTAVYYCRAWGIITSATVYWGQGTQVTVSS
0.034 nM | 0.24 nM | hFc-sdAb008-DM1 (Fc fusion, not shown: a dimerising Fc or GST, DM1 conjugate (SMCC linker); sites not given) QVKLEESGGGLVQAGGSLRLSCAASGSSGMINTMGWYRQAPGKQRELVARRSTGGTTNYADSVKGRFTISRDDANNTVYLQMNSLKPEDTAVYYCAIIWRTSDLTGRFNTWGQGTQVTVSS
0.887 nM |  | hFc-sdAb001-DM1 (Fc fusion, not shown: a dimerising Fc or GST, DM1 conjugate (SMCC linker); sites not given) QVKLEESGGGLVQAGGSLRLSCTASASISSFDIMGWYRQAPGKQRELVAAITTLDIANYRDSVKGRFTISRDNAKNTVYLQMDSLKPEDTARYHCAAFQSDQNYWGQGTQVTVSS
6.66 nM | 3.78 nM | hFc-sdAb005-DM1 (Fc fusion, not shown: a dimerising Fc or GST, DM1 conjugate (SMCC linker); sites not given) QVKLEESGGGLAQAGGSLRLSCAASGSISSINTIGWFRQAPGKQRELVAASDSGANRNYADSVKGRFTISRDNAKNTVYLQMNNLKPEDTAIYYCRAWGTGTISTMYWGQGTQVTVSS

From US20240076389A1
